Test: soluble on expression in E. coli; label from the status in PepcDB or PDB records

| Sequence | soluble on expression in E. coli |
| --- | --- |
| LSYHVIGPLRELTSTARRLGRGELDARVTYSGEDELAQLGERFNQMAGELKSIYGDLEERVEDKTRALSQSHQRLELLYASARRLGENPYDSRTLQPLLNQLEKVLDAGRVTLCLNKDGVERAYSSLTTTERPADFCLQGDCGSCREQASACDQPSSLAQPLLMQPLSIAGHRFGELFIESRSGRLENWQQQLIETFCDNIARTFALSLQQEQESRLALFAERGTIARELHDSLAQSLSYLKIQVSRLGTLLKREAPAEKIEDTLDELREGLNGAYRQLRELLTTFRLSLDEPSLEAALGNAVAEFGERGEVTIELDNRLQHVPLSPNEEIHVLQIVREALSNVVRHSQAQRAWVRLSSQADGQVSIAVEDDGVGFDPQQNRSGHYGLTIMQERGQTLGSQLRFEARAPHGTRVLFSFVPTALQP | not soluble |
| MEALILEPSLYTVKAILILDNDGDRLFAKYYDDTYPSVKEQKAFEKNIFNKTHRTDSEIALLEGLTVVYKSSIDLYFYVIGSSYENELMLMAVLNCLFDSLSQMLRKNVEKRALLENMEGLFLAVDEIVDGGVILESDPQQVVHRVALRGEDVPLTEQTVSQVLQSAKEQIKWSLLR | not soluble |
| MLQPILSISGKSGLFRLVSRGKNTLIVEALDTKRRTPTYPSDRVVSLGDISIYTIEDDVPLPEVMETIYRKNEGKQLDAPALTKDNDSLRAFFGEVLPEYDVDRVYPSDIRKIISWYNLLVDNGFTTFLSDKKPAEEETTEKE | not soluble |
| MANHELDQLRKQVDEINLQLLHLLNKRGEIVQKIGEQKQVQGTKRFDPVREREVLDMIAENNEGPFETSTVQHIFKTIFKASLELQEDDNRKALLVSRKKKQENTIVDVKGELIGNGTQTFIMGPCAVESLEQVRQVGQAMKDQGLKLMRGGAFKPRTSPYDFQGLGVEGLQILRQVADEFDLAIISEILNPNDVEMALDYVDVIQVGARNMQNFDLLRAVGKVNKPVLLKRGLAATIDEFINAAEYIIAQGNDQIILCERGIRTYERATRNTLDISAVPILKKETHLPVVVDVTHSTGRRDLLLPTAKAALAIGADAVMAEVHPDPAVALSDSAQQMDIPEFHRFMEELKGFKNKLS | not soluble |
| MEVVKMPFGVPGWKWKVGKFGYTVENEPNYEEIKAKAKEVLSRTTKGIAWRGHCGSLHIPLVFEGQIIGELWEDADPKEVEIGAYWFGKWGIKVQLVKDGRVIGFIWLA | soluble |
| MRSGQMEIIIGWLYPQLMSTYGDRGNVIIIERRAQWREYNVTVLPLDQNSTPDDLKSVDVIVGGGAQDRQQEIVMRDLQGAKADAMREKIENGTPGVFTCGSPQLLGHYYEPGFGQRIEGLGILDLVSIHPGENTKRCIGNLVIEVTASRFAQELEAMTGTKPYLVGFENHGGRTKLGKVEALGRVVYGLGNNGEDGTEGAFYQNAIATYSHGPLLPKNPFVADWLIQTALRLKYQEEIQLSPLNDTLAMQGREAMFKRLKVNLPLAGRI | not soluble |
| MARKNAVKDNLEQIQHQSYSELQELLSEANSMLADSAAFAGDKADSARARIGALLEKANDALGKGGSAVAERSRHAVDATESYIGANPWQTVAITTAVGLLAGFLLGRRS | not soluble |
| SLSDPIIDMHLHASAADEQGPPPLAMCAPINPMPTWDQRQPWTTGLIAMFKAPKCADPIWSPTTDDEIRDKTLAIMAKRNIIGVVSGPYKRVMAWRALAPDRVLPGLMPTMSDLSKPKVLLDDFGKAKAAGQLAVIGELGFQYEGIAPNDPRLENLWAAAEAADVPVAIHIGPGPPGVAYLPGGGYRARMSSPLLLEDVLVKHPKLRINVMHAGYPMLDDTLALLYAHPQVYVDTGVIVYSQPRPAFYRYLQTLVDAGFGERVMFGSDQMVWPETIERSIAVIDEAPFLSAQQKRDILYNNAARFLRLDEATQAKHRAM | soluble |
| SMGTKLKKSNNDITIFSENEYNEIVEMLRDYSNGDNLEFEVSFKNINYPNFMRITEHYINITPENKIESNNYLDISLIFPDKNVYRVSLFNQEQIGEFITKFSKASSNDISRYIVSLDPSDDIEIVYKNRGSGKLIGIDNWAITIKSTEEIPLVAGKSKISKPKITGSERIMYRYKTRYSFTINKNSRIDITDVKSSPIIWKLMTVPSNYELELELINKIDINTLESELLNVFMIIQD | soluble |
| MSLREYRYSDAHLHYVDFFQESEGMPALIKAMDAAGVEQSMISGIPVAKKWHEDEPKRPRYYAGDDADAYWYSATDTYVAAALQQLPSDQRKRFHPFLSGFNPVDKNAVSHIERMLDLYPGLWQGIGEVFTRHDDLTALTSGDTPRANNEAMTRIYHLAAERDLPVLLHSNITSKRERNPLYLAEIEEPLRNHPHTRFIWAHAGSSMEIHRHQKQMDFLLPVLTRLLEDYPNLYVDLSWSVLQPYLLDEQGAPRKEWLALVEKYPERFMLGSDVVGRFGSLGEQMHGFKPFLDALPESVAHKVARENFLAVLPKARHEGHHHHHH | soluble |
| MGSDKIHHHHHHMWIWQQADWPKFHWNTSSIDALLRQVYFNQGQLLGKQMLSHDDSLLTSDAALDTLLANIIHSSAIEGEKLNAASVRSSLAKKLGVTEDKPYPTTAQTDGLADIMLDALKNLETELTLERILGWHQQLFPQGYTLFNPVIGGTLRGDTPMQVVSGRIDKPTVHFEAPSRATLDAELSQFIEWFNASRQDLGLDPLIRAAITHLWFVTLHPLDDGNGRITRLLTDLALAQAEKRSIRFYAMSVSILARRQAYYDILESTQRGDVDITPWLVWFFETLNDCLLNAMADVSRTLSKTQYWQSVDQSLLSQEQAKVLNRMLDGDFELGINSSQYQKVAKVSRATATRHLAQMVEQRFLVKADAGGRSTRYLLPSGK | not soluble |
| SDVIKTQQISARTIEKVIVHPLVLLSIVDHYNRVAKDTSKRVVGVLLGSSSRGTVDVTNSYAVPFEEDDKDTSIWFLDHNYHESMFHMFKRINAKEHIVGWYSTGPKLRENDLDVHALFNGYVPNPVLVIIDVQPKELGIPTKAYYAVEEVKENATQKSQQVFVHVPTEIAAHEVEEIGVEHLLRDVKDTTISTLATEVTAKLTALKGLDARLREIRTYLDLVIEGKLPLNHEILYHLQDVFNLLPNLNVNELVKAFAVKTNDMMLVIYLSSLIRSVIALHSLINNKLLNKEHEKAEDSKPVDIPLITES | soluble |
| MQHFSRSVALLALSAGTLTSLPALAADELHYNQISLRAEVSQEVARDLMIVTLYSESQNTDPAKLAAEITTTMNKALDQARQVKDVTLRQGSRNSYPIYDGKGQKITGWRERAELRLESSDFAALSKLTGELLGDLKMGGMDFAIADPTRKASEDALLKDAVKAFKARAQLATEALGGKGYKIVNLNLNSNGYPQPYMRAPMMMKAASMDSAPVTPEVEAGTSQVSMTADGAIEVLMPLEHHHHHH | soluble |
| NTEEKFVRAEEKAKRSKMLIDMKSEQYNMITEKIEKTRKSRHDIHHHINVVYQLAKENKIEQLIEYLEEYNKIYSTKEPMVYCNNSTVDAILNHYILLAKDNGIEVHLNVALPEELKIRDTDLCIVIGNLLENAIEASEKEENKRIKLRINRSNEYICMLVSNLYNGEIKKGHSGYYSRKREFKDTGIGLSSVSAVVEKYDGRMEVDHTNGEFNVFIMMANISSNLT | not soluble |
| QIDYRDVFIEFLTTFKGNNNQNKYIERINELVAYRKKSLIIEFSDVLSFNENLAYEIINNTKIILPILEGALYDHILQLDPTYQRDIEKVHVRIVGIPRVIELRKIRSTDIGKLITIDGILVKVTPVKERIYKATYKHIHPDCMQEFEWPEDEEMPEVLEMPTICPKCGKPGQFRLIPEKTKLIDWQKAVIQERPEEVPSGQLPRQLEIILEDDLVDSARPGDRVKVTGILDIKQDSPVKRGSRAVFDIYMKVSSIEVSQKVLDEVIISEEDEKKIKDLAKDPWIRDRIISSIAPSIYGHWELKEALALALFGGVPKVLEDTRIRGDIHILIIGDPGTAKSQMLQFISRVAPRAVYTTGKGSTAAGLTAAVVREKGTGEYYLEAGALVLADGGIAVIDEIDKMRDEDRVAIHEAMEQQTVSIAKAGIVAKLNARAAVIAAGNPKFGRYISERPVSDNINLPPTILSRFDLIFILKDQPGEQDRELANYILDVHSGKSTKNIIDIDTLRKYIAYARKYVTPKITSEAKNLITDFFVEMRKKSSETPDSPILITPRQLEALIRISEAYAKMALKAEVTREDAERAINIMRLFLESVG | soluble |
| MKIAVVGCDGFGKVHLRAMRNISGIEYYVFSRNEEKARECMKEFNAEGYFTRYEDVIKSNVDIVDLLVSHDQHYPMGVMAMKAGKHLMLEKPIARTIEEAMGLINTSKDTKRKFMVLEQFYFESSVRKAKELLPRLGNLSLIIVRSIHLYQ | not soluble |
| GAMGSWNPKYDTRTLWTTPDTSPNCTIAQDKDSKLTLVLTKCGSQILANVSLIVVAGKYHIINNKTNPKIKSFTIKLLFNKNGVLLDNSNLGKAYWNFRSGNSNVSTAYEKAIGFMPNLVAYPKPSNSKKYARDIVYGTIYLGGKPDQPAVIKTTFNQETGCEYSITFNFSWSKTYENVEFETTSFTFSYIAQE | soluble |
| MAHHHHHHMKQECNVCYFNLPDPESTLGPYDNELNYFTWGPGFEYEPEPQRKPLSIEESFENSEESEESVADIQQLEEKVDESDVRIYFNEKSSGGKISIDNASYNARKLGLAPSSIDEKKIKELYGDNLTYEQYLEYLSICVHDKDNVEELIKMFAHFDNNCTGYLTKSQMKNILTTWGDALTDQEAIDALNAFSSEDNIDYKLFCEDILQ | soluble |
| MTTKRKETRESVCYREIKKKIRNGELKPGDRLIENTLSEQLGISRTPIRKAIGMLAADGYVEYNDFRGAFVRDSIINKERYFEMTEILGLFLKQAIQKIRTKKISFNKMRVVAKLVEIERDVEPSDPAVYFEYEKWFVNDLLTYMKNNYYLKISNDFFNNIQEFGDEEVIKIAQNACVKTIANIQRFIDALEAQNYDECMAIIDQVIDAHVLVAYR | not soluble |
| MARLTVHTLETAPEAAKARVEAVLQNNGFIPNLIGVLSNAPEALAFYQEVGKLNAANSLTAGEVEVIQIIAARTNQCGFCVAGHTKLATLKKLLSEQSVKAARALAAGEFDDAKLGALAAFTQAVMAKKGAVSDEELKAFFDAGYNQQQAVEVVMGVALATLCNYVNNLGQTEINP | not soluble |
| MRITLIVLAALSFACTSCWFETGPDRFIYQLSWFCAESSCERGDDLNQFNRAETYGTDFAMSSTSASDLATSATIVVSATLGRDCRLVLDLVLFGHELDESILCFTPNGFELTVTIPDEDPETSSTWVVMAREL | not soluble |
| ENLKLGFLVAQPEEPASQTQWKFADKAGKDLGFEVIKIAVPDGEKTLNAIDSLAASGAKGFVISTPDPKLGSAIVAKARGYDMKVIAVDNQFVNAKGKPMDTVPLVMEAATKIGERQGQELYKEMQKRGWDVKESAVMAITANELDTARRRTTGSMDALKAAGFPEKQIYQVPTKSEDIPGAFDAANSMLVQHPEVKHWLIVGMNDSTVLGGVRATEGQGFKAADIIGIGINGVDAVSELSKAQATGFYGSLLPSPDVHGYKSSEMLYNWVAKDVEPPKFTEVTDVVLITRDNFKEECEKKGLGGK | soluble |
| MGSDKIHHHHHHSDLNSNIKDDPYSGGKAPLGIGLLAESPSPESAYPNDTVVFKAKGMLNWCDPQSGRYDFKFYISDEETKIVTATDTTITVKVPGNLSSGTAYIVLKEQVFYGPRLTVLGNIKIDQSYGFKGTSGPIYDCAEHYSKARVYYPVGDYMQAYYNENSSQSFSCISMVLTDGSVSGKWVTDFKLDPGQGAGIDLANPGVTDIECYLNSFTYFPSDHRVLLSGKFSEYGWDKLPVNNITIATNEVASYYKTVALPSKKNNTSINCKIPVFNGGTLEAPVRTFITSNEKVVAVGNITNYCRINTEKSYAESMVLDYSKVASVLRMSRTGELDDSYRRDAEGVIGQILDACMVESDGIVIVGTFSSFDGQSVKNIVKLNAEGTLDETFMKNIGTGANGSITKIRYNKNKKKILITGEFSEFNGIPAQSVVMLNDDGTRDEIFKIGKMEGGLANFACLLDNDNIVVSGAFTKYDGVTRRGFLILGRDGKALQQFNVPGIFQGELYKVIETRTSTNSNGLLLLGDFSRFDGNMVRNAIMIEVDYE | not soluble |

From the DeepSol protein solubility set
